Data reported in patent US20160347850A1 (AbbVie / Abbott, published 2016).
Where two headings read alike, the source gives them in different places. Values belong to the molecule of their own block, whether it stands above or below them.

Key:
Human CD40 [1] = biological target: T1, Human CD40 (human, UniProt P25942 21-277); assay: cell-based or functional assay
Human CD40 [2] = biological target: T1, Human CD40; assay: cell-based or functional assay; remark: listed apart in the source
Human CD40 [3] = biological target: T1, Human CD40; assay: cell-based or functional assay; remark: listed apart in the source
Human CD40 [4] = biological target: T1, Human CD40; assay: cell-based or functional assay; remark: listed apart in the source
Human CD40 [5] = biological target: T1, Human CD40; assay: FACS blocking of sCD40L binding to CD40 expressing HEK cells
Method: FACS analysis was also used to determine whether the three chimeric antibodies could inhibit binding of soluble CD40 ligand (sCD40L) to CD40. Using CD40 expressing HEK cells, IC50 values were measured. As described in Table 10, each of the chimeric antibodies was able to block CD40 binding to its ligand.

Human CD40 [6] = biological target: T1, Human CD40; assay: cell-based or functional assay; remark: listed apart in the source
Human CD40 [7] = biological target: T1, Human CD40; assay: cell-based or functional assay; remark: listed apart in the source
cyno CD40 [8] = biological target: T2, cyno CD40 (cynomolgus monkey, UniProt G7PG38 21-278); assay: Alexa 647 labeled Ab102 binding to CD40 on the surface of cynomolgus monkey B cells
T2 construct: whole, on cells; also called cyCD40; cynomolgus monkey CD40
Method: (§1) The cross-reactivity of Ab102 with CD40 from various species was tested. […] Binding of Ab102 to mouse, rat, and rabbit CD40 could not be detected at concentrations up to 30 μg/mL (200 nM).

Human CD40 [9] = biological target: T1, Human CD40; assay: Alexa 647 labeled Ab102 binding to CD40 on the surface of human B cells
Method: as §1

mouse CD40 = biological target: T3, mouse CD40 (mouse, UniProt P27512 20-289); assay: Alexa 647 labeled Ab102 on the surface of B cells
T3 construct: whole, on cells
T3 sequence (looked up): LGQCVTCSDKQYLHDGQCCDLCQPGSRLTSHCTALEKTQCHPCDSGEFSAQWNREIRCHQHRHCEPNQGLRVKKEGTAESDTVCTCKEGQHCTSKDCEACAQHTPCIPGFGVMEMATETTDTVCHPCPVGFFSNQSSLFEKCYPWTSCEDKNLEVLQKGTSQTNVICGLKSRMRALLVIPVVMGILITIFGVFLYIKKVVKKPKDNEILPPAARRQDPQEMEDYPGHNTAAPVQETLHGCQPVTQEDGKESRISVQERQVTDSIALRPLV

rat CD40 = biological target: T4, rat CD40 (rat, UniProt A6JXD6 20-289); assay: Alexa 647 labeled Ab102 on the surface of B cells
T4 sequence: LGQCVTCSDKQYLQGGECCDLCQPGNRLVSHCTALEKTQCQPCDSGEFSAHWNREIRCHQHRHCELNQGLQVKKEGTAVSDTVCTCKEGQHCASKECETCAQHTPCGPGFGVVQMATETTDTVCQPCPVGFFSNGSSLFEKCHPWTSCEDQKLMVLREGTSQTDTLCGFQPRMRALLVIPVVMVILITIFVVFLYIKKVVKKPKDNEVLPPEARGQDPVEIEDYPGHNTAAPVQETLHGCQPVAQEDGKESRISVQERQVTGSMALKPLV

cyno CD40 [10] = biological target: T2, cyno CD40; assay: FACS binding on HEK cells expressing cyCD40
cyno CD40 [11] = biological target: T2, cyno CD40; assay: FACS on HEK cells expressing cyno CD40

T1 sequence (P25942 21-277 limits assumed): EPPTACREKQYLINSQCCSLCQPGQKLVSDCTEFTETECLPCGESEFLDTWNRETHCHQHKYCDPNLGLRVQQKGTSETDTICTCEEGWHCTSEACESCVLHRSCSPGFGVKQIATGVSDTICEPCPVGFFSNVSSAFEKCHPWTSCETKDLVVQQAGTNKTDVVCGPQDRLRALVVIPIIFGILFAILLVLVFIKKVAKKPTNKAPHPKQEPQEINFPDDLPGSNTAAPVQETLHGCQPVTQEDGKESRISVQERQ

Molecule: MEGACD40L (Enzo) (ligand)
production of TNF from monocytes, EC50 (agonist assay format) (Human CD40 [1]): 1.9 nM

B3: chimeric Ab1 (chAb1) (antibody, V domains shown)
VH: EVQLVESGGGLVKPGGSLKVSCAASGFTFSDYGMNWVRQAPEKGLEWIAYISSGRSNIYYADTVKGRFTISRDNAKNTLFLQMTSLRSEDTAMYYCARSWGYFDVWGTGTTVTVSS
VL: DIVMTQSPSSLTVTAGEMVTMSCKSSQSLLNSGNQKNYLTWFQQKPGQPPKLLIYWASTRESGVPDRFAGSGSGTDFTLTISSVQAEDLAVYYCQNDYTYPLTFGAGTKLEIK
notes: Murine Ab1 variable regions on human constant regions; also called chimeric antibody (Antibody 1 (Ab1))
IC50 (Human CD40 [5]): 2.3 nM
Antagonist: His-CD40L reporter assay IC50 (Human CD40 [6]): 0.4 nM
Antagonist: Jurkat/Reporter assay IC50 (Human CD40 [6]): 51 nM

B4: Ab102 (antibody, human IgG1, kappa, L234A L235A, V domains shown)
VH: EVQLVESGGGLVKPGGSLRLSCAASGFTFSDYGMNWVRQAPGKGLEWIAYISSGRGNIYYADTVKGRFTISRDNAKNSLYLQMNSLRAEDTAVYYCARSWGYFDVWGQGTTVTVSS
VL: DIVMTQSPDSLAVSLGERATINCKSSQSLLNRGNQKNYLTWFQQKPGQPPKLLIYWASTRESGVPDRFSGSGSGTDFTLTISSLQAEDVAVYYCQNDYTYPLTFGQGTKLEIKR
notes: Humanized IgG1/kappa with L234A, L235A, T250Q, M428L (LALA-QL); also called VL huAbv1/VH huAb1v1CDR2v7/hCg1/k-LALA-QL; mAb CD40 Ab102 [hu IgG1/k]; LALA QL
Monocyte Activation Assay, Antagonist IC50 (nM), Experiment 1 (Human CD40 [7]): 0.06 nM
Monocyte Activation Assay, Antagonist IC50 (nM), Experiment 2 (Human CD40 [7]): 0.23 nM
Monocyte Activation Assay, Antagonist IC50 (nM), Experiment 3 (Human CD40 [7]): 0.11 nM
EC50 (cyno CD40 [8]): 1.4 nM
EC50 (Human CD40 [9]): 0.89 nM
binding result (mouse CD40): no binding (tested: 30 µg/mL (200 nM))
binding result (rat CD40): no binding (tested: 30 µg/mL (200 nM))

B5: chimeric Ab2 (chAb2) (antibody, V domains shown)
VH: EVQLVESGGGLVKPGGSLKVSCAASGFTFSDYGMNWVRQSPEKGLEWIAYISSGRGNIYYADTVKGRFTISRDNAKNTLFLQMTSLRSEDTAMYYCARSWGYFDVWGTGTTVTVSS
VL: DIVMTQSPSSLTVTAGEKVTMSCKSSQSLLNSGNQKNYLTWFQQKPGQPPKLLIYWASTRESGVPDRFTGSGSGTDFTLTISSVQAEDLAVYYCQNDYTYPLTFGAGTKLELK
IC50 (Human CD40 [5]): 1.4 nM
binding result (cyno CD40 [10]): binds
Antagonist: His-CD40L reporter assay IC50 (Human CD40 [6]): 0.3 nM
Antagonist: Jurkat/Reporter assay IC50 (Human CD40 [6]): 3.4 nM

B6: chimeric Ab3 (chAb3) (antibody, V domains shown)
VH: QVQLQQSGAELARPGASVKMSCKAFGYTFTSYTMHWVKQRPGQGLEWIGYINPSSDYPNYNQKFKDKATLTADKSSSTAYMQLSSLTSEDSAVYYCARWGYSFDYWGQGTTLTVSS
VL: DIVMTQAAPSVSVIPGESVSISCRSSKSLLHSNGNTYLYWFLQRPGQSPQYLIYRMSTLASGVPDRFSGSGSGTAFTLRISRVEAEDVGVYYCMQHLEYPLTFGAGTKLELK
notes: also called chimeric Antibody 3
IC50 (Human CD40 [5]): 1.4 nM
binding result (cyno CD40 [11]): no binding
Antagonist: His-CD40L reporter assay IC50 (Human CD40 [6]): 0.2 nM
Antagonist: Jurkat/Reporter assay IC50 (Human CD40 [6]): 0.9 nM

Other lines, results leading:

Antagonist: Jurkat/Reporter assay IC50 (Human CD40 [2]): > 100 nM
B1: huAb1v5 (antibody, V domains shown)
VH: EVQLVESGGGLVKPGGSLRLSCAASGFTFSDYGMNWVRQAPGKGLEWIAYISSGRSNIYYADTVKGRFTISRDNAKNSLYLQMNSLRAEDTAVYYCARSWGYFDVWGQGTTVTVSS
VL: DIVMTQSPDSLAVSLGERATINCKSSQSLLNTGNQKNYLTWFQQKPGQPPKLLIYWASTRESGVPDRFSGSGSGTDFTLTISSLQAEDVAVYYCQNDYTYPLTFGQGTKLEIK

antagonistic activity in comparison to antibody huAb1v1 (Human CD40 [3]): 20 fold
Antagonist: Jurkat/Reporter assay (IC50 nM) (Human CD40 [4]): 2.69 nM
B2: huAb1v1CDR2v7 (antibody, V domains shown)
VH: EVQLVESGGGLVKPGGSLRLSCAASGFTFSDYGMNWVRQAPGKGLEWIAYISSGRGNIYYADTVKGRFTISRDNAKNSLYLQMNSLRAEDTAVYYCARSWGYFDVWGQGTTVTVSS
VL: DIVMTQSPDSLAVSLGERATINCKSSQSLLNRGNQKNYLTWFQQKPGQPPKLLIYWASTRESGVPDRFSGSGSGTDFTLTISSLQAEDVAVYYCQNDYTYPLTFGQGTKLEIK
